Results from article PMC9279154 (Nature, 2022).

B1: 50 bp palindromic dsRNA (dsRNA)
RNA 1: GAGACUUGGGCAAUGUGACUGCUGAUCAGCAGUCACAUUGCCCAAGUCUCUU
RNA 2: B1 RNA 1
modifications: 5'-monophosphate on both strands
B2: Dcr-2(D1217N/D1476N), catalytically inactive mutant (enzyme, Drosophila melanogaster, UniProt A1ZAW0 1-1722, looked up)
chain: MEDVEIKPRGYQLRLVDHLTKSNGIVYLPTGSGKTFVAILVLKRFSQDFDKPIESGGKRALFMCNTVELARQQAMAVRRCTNFKVGFYVGEQGVDDWTRGMWSDEIKKNQVLVGTAQVFLDMVTQTYVALSSLSVVIIDECHHGTGHHPFREFMRLFTIANQTKLPRVVGLTGVLIKGNEITNVATKLKELEITYRGNIITVSDTKEMENVMLYATKPTEVMVSFPHQEQVLTVTRLISAEIEKFYVSLDLMNIGVQPIRRSKSLQCLRDPSKKSFVKQLFNDFLYQMKEYGIYAASIAIISLIVEFDIKRRQAETLSVKLMHRTALTLCEKIRHLLVQKLQDMTYDDDDDNVNTEEVIMNFSTPKVQRFLMSLKVSFADKDPKDICCLVFVERRYTCKCIYGLLLNYIQSTPELRNVLTPQFMVGRNNISPDFESVLERKWQKSAIQQFRDGNANLMICSSVLEEGIDVQACNHVFILDPVKTFNMYVQSKGRARTTEAKFVLFTADKEREKTIQQIYQYRKAHNDIAEYLKDRVLEKTEPELYEIKGHFQDDIDPFTNENGAVLLPNNALAILHRYCQTIPTDAFGFVIPWFHVLQEDERDRIFGVSAKGKHVISINMPVNCMLRDTIYSDPMDNVKTAKISAAFKACKVLYSLGELNERFVPKTLKERVASIADVHFEHWNKYGDSVTATVNKADKSKDRTYKTECPLEFYDALPRVGEICYAYEIFLEPQFESCEYTEHMYLNLQTPRNYAILLRNKLPRLAEMPLFSNQGKLHVRVANAPLEVIIQNSEQLELLHQFHGMVFRDILKIWHPFFVLDRRSKENSYLVVPLILGAGEQKCFDWELMTNFRRLPQSHGSNVQQREQQPAPRPEDFEGKIVTQWYANYDKPMLVTKVHRELTPLSYMEKNQQDKTYYEFTMSKYGNRIGDVVHKDKFMIEVRDLTEQLTFYVHNRGKFNAKSKAKMKVILIPELCFNFNFPGDLWLKLIFLPSILNRMYFLLHAEALRKRFNTYLNLHLLPFNGTDYMPRPLEIDYSLKRNVDPLGNVIPTEDIEEPKSLLEPMPTKSIEASVANLEITEFENPWQKYMEPVDLSRNLLSTYPVELDYYYHFSVGNVCEMNEMDFEDKEYWAKNQFHMPTGNIYGNRTPAKTNANVPALMPSKPTVRGKVKPLLILQKTVSKEHITPAEQGEFLAAITASSAADVFDMERLEILGNSFLKLSATLYLASKYSDWNEGTLTEVKSKLVSNRNLLFCLIDADIPKTLNTIQFTPRYTWLPPGISLPHNVLALWRENPEFAKIIGPHNLRDLALGDEESLVKGNCSDINYNRFVEGCRANGQSFYAGADFSSEVNFCVGLVTIPNKVIADTLEALLGVIVKNYGLQHAFKMLEYFKICRADIDKPLTQLLNLELGGKKMRANVNTTEIDGFLINHYYLEKNLGYTFKDRRYLLQALTHPSYPTNRITGSYQELEFIGNAILDFLISAYIFENNTKMNPGALTDLRSALVNNTTLACICVRHRLHFFILAENAKLSEIISKFVNFQESQGHRVTNYVRILLEEADVQPTPLDLDDELDMTELPHANKCISQEAEKGVPPKGEFNMSTNVDVPKALGDVLEALIAAVYLDCRDLQRTWEVIFNLFEPELQEFTRKVPINHIRQLVEHKHAKPVFSSPIVEGETVMVSCQFTCMEKTIKVYGFGSNKDQAKLSAAKHALQQLSKCDA
notes: Dicer-2 (Dcr-2), Drosophila melanogaster, UniProt A1ZAW0, full length with D1217N and D1476N; also called Dcr-2(DDNN); Dcr-2^DDNN; source: sf9 cells (Bac-to-Bac baculovirus), purified (Ni-NTA, Hitrap Q, 2nd Ni-NTA, SEC)
B3: His-tagged Loqs-PD, wild type (natural protein, Drosophila melanogaster, UniProt Q9VJY9-4 1-359, looked up)
chain: MDQENFHGSSLPQQLQNLHIQPQQASPNPVQTGFAPRRHYNNLVGLGNGNAVSGSPVKGAPLGQRHVKLKKEKISAQVAQLSQPGQLQLSDVGDPALAGGSGLQGGVGLMGVILPSDEALKFVSETDANGLAMKTPVSILQELLSRRGITPGYELVQIEGAIHEPTFRFRVSFKDKDTPFTAMGAGRSKKEAKHAAARALIDKLIGAQLPESPSSSAGPSVTGLTVAGSGGDGNANATGGGDASDKTVGNPIGWLQEMCMQRRWPPPSYETETEVGLPHERLFTIACSILNYREMGKGKSKKIAKRLAAHRMWMRLQETPIDSGKISDSICGELEGEVSIIQDIDRYEQVSKDFEFIKI
notes: Loquacious-PD (Loqs-PD), Drosophila melanogaster, UniProt M9MRT5, full length; The only construct described is in a modified pET28a with a 6×His-SUMO tag; also called WT; source: E. coli BL21 (DE3), purified
B4: Drosophila melanogaster Loquacious-PD (Loqs-PD), full length, tag removed (natural protein, UniProt Q9VJY9-4 1-359, looked up)
chain: B3 chain
notes: Loquacious-PD (Loqs-PD), Drosophila melanogaster, UniProt M9MRT5, full length (C-terminal residue Ile359); also called DmLoqs-PD; Loqs-PD^FL; source: E. coli BL21 (DE3), purified (Ni-NTA, ULP1 cleavage, 2nd Ni-NTA, SEC)

Columns and labels:
[1] = target: Dcr-2 delta-dsRBD;Loqs-PD (Drosophila melanogaster;Drosophila …, UniProt A1ZAW0;Q9VJY9-4 1-1628;1-359, |); test: cryo-EM; ATP, Mg2+; no further dsRNA bending; Cryo-EM and EMSA buffers not given in the material; with or without ATP and Mg2+; conditions: protein: recombinant;recombinant; tags: Ni-NTA purified;6xHis-SUMO removed by ULP1; copies: 1;1; 3' overhang 2 nt (UU) at both ends; 50 bp; self-complementary, 2 copies of one strand
Dcr-2 DDNN;Loqs-PD = Dcr-2 DDNN;Loqs-PD (Drosophila melanogaster;Drosophila …, UniProt A1ZAW0;Q9VJY9-4 1-1722;1-359, D1217N;D1476N|); test: cryo-EM; no ATP; initial binding state, dimer, 3.1 A; Cryo-EM and EMSA buffers not given in the material; with or without ATP and Mg2+; conditions: protein: recombinant;recombinant; tags: Ni-NTA purified;6xHis-SUMO removed by ULP1; copies: 1;1; 3' overhang 2 nt (UU) at both ends; 50 bp; self-complementary, 2 copies of one strand
Dcr-2 WT;Loqs-PD = Dcr-2 WT;Loqs-PD (Drosophila melanogaster;Drosophila …, UniProt A1ZAW0;Q9VJY9-4 1-1722;1-359, |); test: cryo-EM; ATP, Mg2+; post-dicing state, RNA cleaved 21 bp from terminus, 4.6 A; Cryo-EM and EMSA buffers not given in the material; with or without ATP and Mg2+; conditions: protein: recombinant;recombinant; tags: Ni-NTA purified;6xHis-SUMO removed by ULP1; copies: 1;1; 3' overhang 2 nt (UU) at both ends; 50 bp; self-complementary, 2 copies of one strand
[2] = target: the molecule itself; test: cryo-EM structure; Dcr-2^DDNN–Loqs-PD with 50 bp dsRNA, without ATP: initial dsRNA-binding state (dimer), 3.1 Å
[3] = target: T1, Drosophila melanogaster Dicer-2 (Dcr-2), wild type (Drosophila melanogaster, UniProt A1ZAW0 1-1722); test: pull-down; 1.25 μM His-tagged Loqs-PD and 0.6 μM untagged Dcr-2 mixed on ice for 30 min, then Ni-NTA agarose; 200 mM NaCl, 20 mM Tris pH 8.0, 5% glycerol, 20 mM imidazole, 4 °C, 1 h; SDS–PAGE; conditions: both partners purified
T1 construct: Dicer-2 (Dcr-2), Drosophila melanogaster, UniProt A1ZAW0, full length; The pull-down methods call it 'untagged Dcr-2'; also called WT Dcr-2; Dcr-2^WT; source: sf9 cells (Bac-to-Bac baculovirus), purified (Ni-NTA, Hitrap Q, 2nd Ni-NTA, SEC)

[4] = target: B2; test: cryo-EM structure; Dcr-2^DDNN–Loqs-PD with 50 bp dsRNA, without ATP: initial dsRNA-binding state (dimer), 3.1 Å; conditions: both partners purified
[5] = target: T1, Drosophila melanogaster Dicer-2 …; test: cryo-EM structure; Dcr-2^DDNN–Loqs-PD in the apo state (no dsRNA, no ATP); Dcr-2^DDNN–Loqs-PD with 50 bp dsRNA, ATP and Mg2+ (early-translocation, mid-translocation and active dicing states); WT Dcr-2–Loqs-PD with 50 bp dsRNA, ATP and Mg2+ (post-dicing state); conditions: both partners purified

B1
binding result [1]: binds | binding result (Dcr-2 DDNN;Loqs-PD): binds | binding result (Dcr-2 WT;Loqs-PD): binds

B2
stoichiometry N [2]: 2

B3
binding result [3]: binds

B4
binding result [4]: binds | binding result [5]: binds
